From patent US20100008928A1 (Takeda / Millennium, published 2010)

T1: nectin-2 Ig2 domain-deficient protein (human, UniProt Q92692 32-538)
T1 construct: transient in CHO-K1; also called delta-Ig2; Nectin-2ΔIg2
T1 sequence: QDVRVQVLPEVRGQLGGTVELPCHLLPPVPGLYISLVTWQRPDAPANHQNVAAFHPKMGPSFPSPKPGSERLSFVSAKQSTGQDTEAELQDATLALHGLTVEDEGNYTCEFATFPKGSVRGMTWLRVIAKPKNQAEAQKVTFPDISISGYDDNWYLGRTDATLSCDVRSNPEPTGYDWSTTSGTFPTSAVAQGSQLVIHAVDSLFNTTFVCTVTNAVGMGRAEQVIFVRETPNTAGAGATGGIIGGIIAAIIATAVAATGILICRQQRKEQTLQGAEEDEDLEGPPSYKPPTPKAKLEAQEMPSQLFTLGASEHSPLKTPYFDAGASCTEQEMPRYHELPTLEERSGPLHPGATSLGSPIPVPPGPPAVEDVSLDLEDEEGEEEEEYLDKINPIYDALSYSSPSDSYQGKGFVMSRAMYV

T2: nectin-2 Ig1 domain-deficient protein (human, UniProt Q92692 32-538)
T2 construct: transient in CHO-K1; also called delta-Ig1; Nectin-2ΔIg1
T2 sequence: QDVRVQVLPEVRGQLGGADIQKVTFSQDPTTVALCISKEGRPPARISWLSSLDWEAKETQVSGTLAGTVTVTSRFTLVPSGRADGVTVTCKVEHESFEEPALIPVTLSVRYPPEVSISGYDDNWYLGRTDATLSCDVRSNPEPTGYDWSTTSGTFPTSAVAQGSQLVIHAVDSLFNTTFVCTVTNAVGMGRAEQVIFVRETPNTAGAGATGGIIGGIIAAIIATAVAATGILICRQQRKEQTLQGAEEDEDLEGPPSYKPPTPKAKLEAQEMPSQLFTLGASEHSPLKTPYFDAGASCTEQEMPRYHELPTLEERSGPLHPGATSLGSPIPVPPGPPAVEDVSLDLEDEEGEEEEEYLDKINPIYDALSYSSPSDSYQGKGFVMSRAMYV

T3: human nectin-1 protein (human, UniProt Q15223 31-517)
T3 construct: transient in CHO-K1 from pCMV-Tag4-Nectin-1
T3 sequence: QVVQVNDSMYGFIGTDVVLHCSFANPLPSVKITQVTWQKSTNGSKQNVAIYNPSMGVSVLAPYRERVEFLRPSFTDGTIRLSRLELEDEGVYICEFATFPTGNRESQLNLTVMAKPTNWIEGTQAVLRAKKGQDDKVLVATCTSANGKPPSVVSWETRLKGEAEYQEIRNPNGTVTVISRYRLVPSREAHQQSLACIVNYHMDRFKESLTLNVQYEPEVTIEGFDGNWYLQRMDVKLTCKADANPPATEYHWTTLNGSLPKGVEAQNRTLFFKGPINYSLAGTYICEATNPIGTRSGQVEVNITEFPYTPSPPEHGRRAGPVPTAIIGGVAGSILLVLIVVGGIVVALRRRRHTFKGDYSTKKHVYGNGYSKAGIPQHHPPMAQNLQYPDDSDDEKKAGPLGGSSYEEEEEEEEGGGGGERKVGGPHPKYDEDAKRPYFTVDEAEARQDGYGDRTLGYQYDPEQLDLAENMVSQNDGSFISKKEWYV

T4: human nectin-4 protein (human, UniProt Q96NY8 32-510)
T4 construct: transient in CHO-K1 from pCMV-Tag4-Nectin-4
T4 sequence: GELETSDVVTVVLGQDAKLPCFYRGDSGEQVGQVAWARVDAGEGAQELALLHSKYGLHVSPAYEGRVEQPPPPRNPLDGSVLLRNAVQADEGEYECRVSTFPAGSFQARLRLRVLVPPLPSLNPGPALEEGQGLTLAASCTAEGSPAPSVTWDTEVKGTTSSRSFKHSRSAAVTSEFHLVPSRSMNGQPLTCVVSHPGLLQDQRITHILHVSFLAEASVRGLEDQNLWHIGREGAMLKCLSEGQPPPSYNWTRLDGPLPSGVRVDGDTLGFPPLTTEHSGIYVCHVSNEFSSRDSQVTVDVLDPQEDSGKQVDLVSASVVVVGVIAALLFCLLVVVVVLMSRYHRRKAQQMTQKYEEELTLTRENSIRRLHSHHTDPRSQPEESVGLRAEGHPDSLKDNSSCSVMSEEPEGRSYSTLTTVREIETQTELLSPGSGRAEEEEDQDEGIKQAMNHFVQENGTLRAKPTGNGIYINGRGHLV

T5: human Nec1-5 protein (human, UniProt P15151 21-417)
T5 construct: transient in CHO-K1 from pCMV-Tag4-Nec1-5; also called Necl-5
T5 sequence: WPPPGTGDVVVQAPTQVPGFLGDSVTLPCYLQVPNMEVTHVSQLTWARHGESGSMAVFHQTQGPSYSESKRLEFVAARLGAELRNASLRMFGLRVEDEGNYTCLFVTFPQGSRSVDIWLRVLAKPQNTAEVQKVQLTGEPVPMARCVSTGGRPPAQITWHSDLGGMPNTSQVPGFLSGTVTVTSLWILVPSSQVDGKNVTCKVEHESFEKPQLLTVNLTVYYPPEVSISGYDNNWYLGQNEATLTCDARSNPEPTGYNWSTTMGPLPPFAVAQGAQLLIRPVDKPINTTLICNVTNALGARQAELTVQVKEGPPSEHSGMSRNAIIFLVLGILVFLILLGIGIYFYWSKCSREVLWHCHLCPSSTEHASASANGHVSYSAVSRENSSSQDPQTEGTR


Experiments:
Assay in all cases: FCM
[1] = molecular target: T1, nectin-2 Ig2 domain-deficient protein
Protocol: (§1) After 200 μL of FCM buffer was added to each well and washed once by centrifugal operation, 50 μL each of Alexa488-labeled secondary antibody diluted in FCM buffer to 10 μg/mL was added to and mixed therewith, and the mixture was then reacted on ice for an hour. The Alexa488-labeled secondary antibody used was Alexa Fluor488 goat anti-human IgG (H+L) for the human antibodies and Alexa Fluor488 goat anti-rabbit IgG (H+L) (Invitrogen) for the rabbit antibody. The cells in each well were washed twice with FCM buffer and then resuspended in 250 μL of FCM buffer. Using the flow cytometer MPL500 (BECKMAN COULTER), the fluorescence intensity of stained cells was measured to determine the ratio of the median value of fluorescence intensities of the respective antibodies in the primary antibody group to the median value of fluorescence intensities in the negative control group.

[2] = molecular target: T2, nectin-2 Ig1 domain-deficient protein
Protocol: as §1

human nectin-1 protein = molecular target: T3, human nectin-1 protein
Protocol: (§2) Specifically, CHO-K1 cell line was incubated in a T75 flask charged with a medium mixture of DMEM and F-12 in equivalent volumes (Invitrogen) supplmented with 10% FBS (JRH) at 37° C. for 1 to 2 days in a 5% carbon dioxide gas flow. […] Four hours after the transfection, the medium for the CHO-K1 cells was exchanged with a fresh aliquot of the medium described above, followed by incubation for further 2 days. These cells were washed twice with D-PBS, detached by Cell Dissociation Buffer, enzyme-free, PBS-based (Invitrogen) and resuspended in D-PBS (−) containing 1% FBS and 0.1% sodium azide (hereinafter referred to as FCM buffer) at a density of 5×10⁶ cells/mL. […] After 200 μL of FCM buffer was added to each well and washed once by centrifugal operation, 50 μL/well of Alexa488-labeled secondary antibody diluted in FCM buffer to 10 μg/mL was added for suspension, which was then reacted on ice for an hour.

human nectin-4 protein = molecular target: T4, human nectin-4 protein
Protocol: as §2

human Nec1-5 protein = molecular target: T5, human Nec1-5 protein
Protocol: as §2

| median fluorescence ratio [2] | binding result (human nectin-1 protein) | binding result (human nectin-4 protein) | binding result (human Nec1-5 protein) | Binder | binding result [1] |
| --- | --- | --- | --- | --- | --- |
| 4.3 | – | – | – | Nec1-554-1 SP3 (antibody, V domains shown, also called antibody fraction (SP3)) VH: EVQLVESGGGLVKPGGSLRLSCAASGFTFSSYNMNWVRQAPGKGLEWVSSISSSSSYIYYADSVKGRFTISRDNAKNSLYLQMNSLRAEDTAVYYCARDYYGSGTYYLFDYWGQGTLVTVSS VL: EIVLTQSPDFQSVTPKEKVTITCRASQSIGSSLHWYQQKPDQSPKLLIKYASQSFSGVPSRFSGSGSGTDFTLTINSLEAEDAAAYYCHQSRSLPITFGQGTRLEIK | no binding (tested: ratio <2 = no reactivity; 6 µg/mL) |
| – | no binding (tested: 6 µg/mL) | no binding (tested: 6 µg/mL) | no binding (tested: 6 µg/mL) | Nec1-803-2 (antibody, human IgG1, V domains shown) VH: QVQLQESGPGLVKPSETLSLTCTVSGGSISSYYWTWIRQPPGKGLEWIGYIYYSGSTNSNPSLKSRVTISVDTSKNQFSLKLSSVTAADTAVYYCTRDPGEDYNYGMDVWGQGTTVTVSS VL: AIQLTQSPSSLSASVGDRVTITCRASQGISSALAWYQQKPGKAPKLLIYDASSLESGVPSRFSGSGSGTDFTLTISSLQPEDFATYYCQQFNSYPRTFGQGTKVEIK | – |
| – | no binding (tested: 6 µg/mL) | no binding (tested: 6 µg/mL) | no binding (tested: 6 µg/mL) | Nec1-834-1 (antibody, human IgG1, V domains shown, human IgG1/k from hybridoma FERM BP-10428) VH: QVQLQESGPGLVKPSETLSLTCTVSSASISSYYWSWIRQPPGKGLEWIGYIYYSGSTNYNPSLKSRVTISIDTSKNQFSLKLSSVTAADTAVYYCARDAGEDYSYGMDVWGQGTTVTVSS VL: AIQLTQSPSSLSASVGDRVTITCRASQGISSALAWYQQKPGKAPKLLIYDASSLESGVPSRFSGSGSGTDFTLTISSLQPEDFATYYCQQFNSYRTFGQGTKVEIK | – |
